The Km is the concentration of substrate that gives half-maximal velocity.

In this series the test system is T1, C[C@H]1CCCC(=O)CCC/C=C/c2cc(O)cc(O)c2C(=O)O1.
T1 construct: full-length ORF (792 bp, 264 aa, 29 kDa) in pPICZalphaA with alpha-factor secretion signal, secreted from Pichia pastoris X33; ~35 kDa band for Ser-Cr2
Kind of series: HPLC, ZEN degradation; Lineweaver-Burk. Conditions: 20 mM Tris-HCl pH 8.0, 30 °C. Format: biochemical, Clonostachys rosea.

Take Cr2zen (Clonostachys rosea): the Km is on record as 75.9 ± 2.1 µM.

Values taken from paper PMC12846278, “Efficient Expression of Lactone Hydrolase Cr2zen for Scalable Zearalenone Degradation in Pichia pastoris” (Toxins, 2025).
